± gives the uncertainty stated by the source.

The chains are these.
B1: Steroid hormone receptor ERR2, residues 100 to 176; numbered along this chain, O95718 (parent)
chain: KRLCLVCGDIASGYHYGVASCEACKAFFKRTIQGNIEYSCPATNECEITKRRRKSCQACRFMKCLKVGMLKEGVRLD

The variants in this data set derive from B1. In words: abundance fitness (aPCA) (normalised: wild type 0, dead -1); higher = more abundant; growth selection in yeast, the domain comes from the species named. To be noted: Homo sapiens.
Take KRLCLVCGDIASGYHYGVASCEADKAFFKRTIQGNIEYSCPATNECEITKRRRKSCQACRFMKCLKVGMLKEGVRLD [C24D]: the abundance fitness is 0.265 ± 0.07.
For KRLCLVCGDIASGYHYGVASCEACKAFFKRTIQGNIEYSCPATVECEITKRRRKSCQACRFMKCLKVGMLKEGVRLD [N44V], the abundance fitness was -0.077 ± 0.049.
KRLCLVCGDIASGYHKGVASCEACKAFFKRTIQGNIEYSCPATNECEITKRRRKSCQACRFMKCLKVGMLKEGVRLD [Y16K]: the abundance fitness was -0.315 ± 0.084.
Next, KRLCLVCGHIASGYHYGVASCEACKAFFKRTIQGNIEYSCPATNECEITKRRRKSCQACRFMKCLKVGMLKEGVRLD [D9H]: -0.365 ± 0.19.
For KRLCLVCGDIASGYHYGVASCEACKAFFKRTIQGNIEYSCPATNECEITKRRRKSCQNCRFMKCLKVGMLKEGVRLD [A58N], the abundance fitness amounted to 0.044 ± 0.14.
Turning to KRLCLVCGDIASGYHYGVASCEACKAFFKRTIQGNIEYSCPATNECEITKRRRKSCQVCRFMKCLKVGMLKEGVRLD [A58V], the abundance fitness is -0.772 ± 0.097.
Next, KRLCLVCGDIASGYHYGVASCEACKAFFKRTIQGNIEYSCPATNECEITKRRRKSCQACRFMKCLKPGMLKEGVRLD [V67P]: -1.03 ± 0.24.
KRLCLVCGDIASGYHYGVASCEACKAFFKRTFQGNIEYSCPATNECEITKRRRKSCQACRFMKCLKVGMLKEGVRLD [I32F]: the abundance fitness was -0.115 ± 0.12.
Next, KRLCLVCGDIASGYHYGVASCEACKAFFKRTIQGNIEYSCPATNECEITKRRRKSCQACRFMKCLKVGMDKEGVRLD [L70D]: 0.069 ± 0.087.
For KRLCLVCGDIASGYHYGVASCEACKAFFKRTIQGMIEYSCPATNECEITKRRRKSCQACRFMKCLKVGMLKEGVRLD [N35M], the abundance fitness was -0.317 ± 0.067.
As to KRLCLVCGDIASGYHYGVASCEACKAFFKRTIQGNIEYSCPATNECEITKRRRKSFQACRFMKCLKVGMLKEGVRLD [C56F], the abundance fitness is -0.936 ± 0.21.
As for KRLCLVCGDIASGYHYGVASCEACKAFFKRTIQGNIELSCPATNECEITKRRRKSCQACRFMKCLKVGMLKEGVRLD [Y38L], the abundance fitness was -0.398 ± 0.061.
KRLCLKCGDIASGYHYGVASCEACKAFFKRTIQGNIEYSCPATNECEITKRRRKSCQACRFMKCLKVGMLKEGVRLD [V6K]: the abundance fitness is -0.211 ± 0.074.
The result for KRLCLVCGDIASGYHYGVASCEACKAFFKRTIQPNIEYSCPATNECEITKRRRKSCQACRFMKCLKVGMLKEGVRLD [G34P] reads -0.904 ± 0.18.
For KRLCLVCGDIASGYHYGVASCEACKAFFKRTIQMNIEYSCPATNECEITKRRRKSCQACRFMKCLKVGMLKEGVRLD [G34M], the abundance fitness is -0.041 ± 0.062.
Next, KRLCLVCGDIASGYHYGVASCEACKAFFKRTIQGNVEYSCPATNECEITKRRRKSCQACRFMKCLKVGMLKEGVRLD [I36V]: 0.003 ± 0.044; KRLCLVCGDIASGYHYGVASCEACKAFFKRTIQGNIEYSCPATNECEITKRRRKSCQACRFMKCLKVGMLKEGVRGD [L76G]: 0.055 ± 0.043; KRLCLVCGDIASGYHYGVASCEACKAFFKHTIQGNIEYSCPATNECEITKRRRKSCQACRFMKCLKVGMLKEGVRLD [R30H]: -0.357 ± 0.14.
On to KRLCLVCGDIASGYHYGVASCEACKAFFPRTIQGNIEYSCPATNECEITKRRRKSCQACRFMKCLKVGMLKEGVRLD [K29P], for which the abundance fitness is -0.841 ± 0.16.
Next, KRLCLVCGDIASGYHYGVASCEACKAFFKRTIQGNIEYSCPATNECEITKRRRKSCQACRCMKCLKVGMLKEGVRLD [F61C]: -1.06 ± 0.26; KRLCLVCGDIASGYHYGVASCEACKAFFKRTIQGNIEYSCPATNECEGTKRRRKSCQACRFMKCLKVGMLKEGVRLD [I48G]: -0.191 ± 0.066.
On to KRLCLVCGDIASGYHYGYASCEACKAFFKRTIQGNIEYSCPATNECEITKRRRKSCQACRFMKCLKVGMLKEGVRLD [V18Y], for which the abundance fitness is -0.663 ± 0.14.
KRLCLVCGDSASGYHYGVASCEACKAFFKRTIQGNIEYSCPATNECEITKRRRKSCQACRFMKCLKVGMLKEGVRLD [I10S]: the abundance fitness was -0.033 ± 0.055.
The result for KRLCLVCGDIASGYHYGVASCEACKAFFKRTIQGNIEYSCPATNECEITKRRRKSCQACRFVKCLKVGMLKEGVRLD [M62V] reads -0.006 ± 0.046.
As for KRLCLVCGDIASNYHYGVASCEACKAFFKRTIQGNIEYSCPATNECEITKRRRKSCQACRFMKCLKVGMLKEGVRLD [G13N], the abundance fitness was -0.362 ± 0.21.
Take KRLCLVCGDIASGYHYGVASGEACKAFFKRTIQGNIEYSCPATNECEITKRRRKSCQACRFMKCLKVGMLKEGVRLD [C21G]: the abundance fitness was -0.866 ± 0.078.
Next, KRLCLVCGDIASGYHYGVAPCEACKAFFKRTIQGNIEYSCPATNECEITKRRRKSCQACRFMKCLKVGMLKEGVRLD [S20P]: -0.321 ± 0.079; KRLCLVCGDIASGYHYGVADCEACKAFFKRTIQGNIEYSCPATNECEITKRRRKSCQACRFMKCLKVGMLKEGVRLD [S20D]: -0.218 ± 0.094.
The result for KRLCLVCGDIASGYHYGVASCEACKAFFKRTIAGNIEYSCPATNECEITKRRRKSCQACRFMKCLKVGMLKEGVRLD [Q33A] reads -0.075 ± 0.054; that for KRLVLVCGDIASGYHYGVASCEACKAFFKRTIQGNIEYSCPATNECEITKRRRKSCQACRFMKCLKVGMLKEGVRLD [C4V], -0.917 ± 0.14; that for KRLCLVCGDIASGYHYGVASCEACKAFFKRTIQGNIEYSCPATNECEITKRRRKSCQATRFMKCLKVGMLKEGVRLD [C59T], -0.872 ± 0.15.
KRLCLVCGDIASGYHYGVASCEACKAFFKRTIQGNIEYSCPATNECEITKRRRKSCQACRFMKCLKVGMLLEGVRLD [K71L]: the abundance fitness was -0.148 ± 0.047.
Take KRLCLVCGDIASGYHYGVASCEACKAFFKRTIQGNIEYSCPATNECEITKRRRKSCQACDFMKCLKVGMLKEGVRLD [R60D]: the abundance fitness was -0.828 ± 0.18.
Turning to KRLCLVCGDIASGYHYGVASCEACKAFFKRTIQGNIEYSCPATNECEITKRRRKSCQACIFMKCLKVGMLKEGVRLD [R60I], the abundance fitness is -0.23 ± 0.11.
Next, KRLCLVCGDIQSGYHYGVASCEACKAFFKRTIQGNIEYSCPATNECEITKRRRKSCQACRFMKCLKVGMLKEGVRLD [A11Q]: -0.217 ± 0.078.
Next, KRLCLVCGDIASGYHYGVASCEACKAFFKRTIQGNIEYCCPATNECEITKRRRKSCQACRFMKCLKVGMLKEGVRLD [S39C]: 0.189 ± 0.06.

These data come from the Human Domainome abundance scans (Beltran et al. 2025).
